Measurements reported in paper PMC11161652, “ASXLs binding to the PHD2/3 fingers of MLL4 provides a mechanism for the recruitment of BAP1 to active enhancers” (Nature Communications, 2024).

How the values were obtained:
[1] = biological target: T1, PHD2 and PHD3 fingers of human MLL3 (aa 342-439) (human, UniProt Q8NEZ4 342-439); test: other fluorescence titration; tryptophan fluorescence, 25 °C; 1.0 µM MLL4 PHD2/3 or MLL3 PHD2/3 with increasing peptide; excitation 295 nm; 20 mM Tris pH 7.2, 150 mM NaCl, 1 mM TCEP, 0.02% Tween20; average of three measurements; settings: both partners purified
T1 construct: PHD2 and PHD3 fingers of human MLL3 (KMT2C), aa 342-439; 15N-labelled for NMR titrations; also used unlabelled as the titrant against MLL3 PHD4; also called MLL3_(PHD2/3); MLL3 PHD2/3; source: E. coli BL21-CodonPlus, purified (glutathione agarose, PreScission cleavage; unlabeled proteins also SEC)
T1 sequence (looked up): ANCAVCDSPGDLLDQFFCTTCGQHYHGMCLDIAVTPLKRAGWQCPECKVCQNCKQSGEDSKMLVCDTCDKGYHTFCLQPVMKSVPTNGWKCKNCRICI

[2] = biological target: T2, PHD2 and PHD3 fingers of human MLL3 (aa 342-439) (human, UniProt Q8NEZ4 342-439)
T2 chain: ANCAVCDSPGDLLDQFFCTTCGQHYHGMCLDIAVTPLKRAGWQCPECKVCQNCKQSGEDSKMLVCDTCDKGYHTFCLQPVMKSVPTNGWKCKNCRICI

[3] = biological target: T3, PHD2 and PHD3 fingers of human MLL4 (aa 227-324) (human, UniProt O14686 227-324); test: not stated; fluorescence spectroscopy or NMR: the legends of Fig. 3c and Fig. 4b say that values marked (a) are from NMR and the others from fluorescence; the text does not tell which for these pairs; settings: both partners purified
T3 construct: PHD2 and PHD3 fingers of human MLL4 (KMT2D), aa 227-324; also called MLL4_(PHD2/3); MLL4 PHD2/3; source: E. coli BL21-CodonPlus, purified (glutathione agarose, PreScission cleavage; unlabeled proteins also SEC)
T3 sequence (looked up): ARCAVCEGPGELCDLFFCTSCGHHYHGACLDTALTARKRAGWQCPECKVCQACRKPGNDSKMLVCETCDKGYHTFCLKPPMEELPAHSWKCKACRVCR

[4] = biological target: T4, PHD2 and PHD3 fingers of human MLL4 (aa 227-324) (human, UniProt O14686 227-324)
T4 chain: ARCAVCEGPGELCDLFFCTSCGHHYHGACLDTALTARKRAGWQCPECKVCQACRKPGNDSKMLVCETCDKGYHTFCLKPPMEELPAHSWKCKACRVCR

B1: ASXL2 peptide (aa 650-670) R655I (peptide, UniProt Q76L83 650-670, looked up)
peptide: NRTGAITLADIKAKAQLVKAQ
notes: ASXL2, residues 650-670; R655I is said to be associated with large intestine cancer; also called R655I mutant of ASXL2; source: synthetic peptide (SynPeptide)
For B1, the binding result [1] was “binds”, the Kd [2] was 10.5 µM and the “fold reduction in binding against the wild type ASXL2 peptide” value [3] was roughly 16 fold. It also gave a Kd [4] of 11 µM.
